Measurements published in publication PMC5071372, “Combining biophysical methods to analyze the disulfide bond in SH2 domain of C-terminal Src kinase” (Biophysics Reports, 2016).
Square brackets hold non-standard residues; d marks the D form. Ends that are not written are not given here. pY = N[C@@H](Cc1ccc(OP(=O)(O)O)cc1)C(=O)O

How the values were obtained:
[1] = biological target: T1, Csk L-SH2 domain (A73–A178), reduced form (human, UniProt P41240 73-178); test: other fluorescence titration; intrinsic tryptophan fluorescence of L-SH2 (typically 5 μmol/L) titrated with Cbp peptide; 25 °C, 3 mL of 50 mmol/L Tris-HCl pH 7.5; excitation 288 nm, emission 320 nm; settings: both partners purified
T1 construct: C-terminal Src kinase (Csk), human, SH2 domain with part of the SH3-SH2 linker, residues A73-A178; C122 and C164 as free thiols; Cloned into pTWIN1 as described in Liu et al. 2009; 15N/13C-labelled for the NMR experiments; PDB 3EAC is the oxidized form of the same construct; also called reduced SH2; reduced L-SH2; source: E. coli BL21 (DE3) RIL, purified (chitin beads, intein cleaved with 50 …)
T1 sequence (looked up): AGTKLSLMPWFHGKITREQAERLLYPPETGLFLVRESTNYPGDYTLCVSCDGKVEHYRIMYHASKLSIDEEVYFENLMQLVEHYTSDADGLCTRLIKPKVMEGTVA

[2] = biological target: T2, Csk L-SH2 domain (A73–A178), oxidized form (human, UniProt P41240 73-178, disulfide bond C122–C164); test: as above; settings: both partners purified
T2 construct: C-terminal Src kinase (Csk), human, SH2 domain with part of the SH3-SH2 linker, residues A73-A178; intramolecular disulfide bond between C122 and C164; Same polypeptide as m1, differing only in the C122–C164 disulfide bond; also called oxidized SH2; oxidized L-SH2; source: E. coli BL21 (DE3) RIL, purified (chitin beads, intein cleaved with DTT, Mono Q); oxidized by exposure to air for about a …
T2 sequence (looked up): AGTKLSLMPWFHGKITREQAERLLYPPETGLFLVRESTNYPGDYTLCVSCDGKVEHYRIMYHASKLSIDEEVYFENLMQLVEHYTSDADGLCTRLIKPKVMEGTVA

B1: Cbp phosphopeptide ISAMpYSSVNK (peptide)
peptide: ISAM[pY]SSVNK
notes: also called Cbp peptide; Cbp-phosphorylated peptide; source: synthetic peptide (GenScript, solid-phase synthesis)
- Kd [1]: 520 ± 50 nM
- Kd [2]: 990 ± 80 nM
